{
  "source": "the DeepSol protein solubility set",
  "data": [
    {"assay": "soluble on expression in E. coli; label from the status in PepcDB or PDB records", "values": [
      {"sequence": "MIVMPKRLSDEIASRVRALIEEQNLEAGMKLPAERQLALQLGVSRNSLREALAKLVSEGVLVSRRGGGTFVRWQHETWSEQNIVQPLKMLMANDPDYSFDILEARHAIEASTAWHAAMRATAADKEKIRLCFDATLSEDPDLASQADVRFHLAIAEASHNVVLLQTMRGFFDVLQSSVKQSRQRMYLVPPVFSKLTEQHQAVMDAILDGNAEGARKAMMAHLSFVHTTIKRFDEDQARQARITRLPGDHNEMTRENKS", "soluble on expression in E. coli": "not soluble"},
      {"sequence": "MLKELSILTGGDGVGFQSAPEQQSLQPAELKPVNVSINSIDELMLFFESLNYTPENFHGGNKSVPRITFDAVGEGWRSVSDQLPVKQKKMVFFRLMTPLVLLANEKVLQERQQVMSAPLDDAELIALAVKYKVISNPTQPLLASHRQALLERVDILPPSLVLAQAAKESGWGTSRFTLEGNALFGQWDFNGNGMEPKQKRQGMGRYGLARFETPLASVEGYLLNLNTHSAYYKMRQLRAQSRHANQMITGTALAGTLDRYSERGHAYVEMIRKMIRTNKLYLADEAYLNDDMPLHLLTRTN", "soluble on expression in E. coli": "soluble"},
      {"sequence": "MPAINAKRVYRIMRQNALLLERKPAVPPSKRAHTGRVAVKESNQRWCSDGFEFCCDNGERLRVTFALDCCDREALHWAVTTGGFNSETVQDVMLGAVERRFGNDLPSSPVEWLTDNGSCYRANETRQFARMLGLEPKNTAVRSPESNGIAESFVKTIKRDYISIMPKPDGLTAAKNLAEAFEHYNEWHPHSALGYRSPREYLRQRACNGLSDNRCLEILEHHHHHH", "soluble on expression in E. coli": "soluble"},
      {"sequence": "MESELSGISNENQISFFGFSAGSFSDSIFNIYVDAWEEVCSNEFKNSLKKLTDKDRLCLLSFPFSDKTNEKAFKMMKRFCVTNIFRIPASVTLPECKKMLIASAKEHKSLKQVEKEFDEKLEKIRQLRIKLAKRHDELEAVNNAIEVLHVMEKSQEQLISQKRIVPDSPTRMSPV", "soluble on expression in E. coli": "not soluble"},
      {"sequence": "GGNLEEMNIDPDNATQTHPKLLLTQICMNAFKRGTDGMYATKKVIQADGESADQYYKWTRGSFGYYDNLRNVQKMGEEAERVNAPVYTALTKFFRAYYFYELTLRFGDIPYSQALKGEKEEIYTPEYDAQEDVFAGILQELREADEILANDASVIDGDIIYNGNSTQWRKLINSFRLKVLMTLSNHTTVGNINIASEFKNIATNSPLMNSLADNGQLVYLDQQGNRYPQFNAQWSGYYMDDTFIQRMRERRDPRLFIFSAQTNKGKTEGKPIDDFSSYEGGDPAAPYSDAIIKVSEGTISPINDRFRTDPIVEPTMLMGYAELQQILAEAVVRGWISGNAQTYYEKGIRASFSFYETHAKDYAGYLNENAVAQYLKEPLVDFTQASGTEEQIERIIMQKYLVTFYQGNWDSFYEQLRTGYPDFRRPAGTEIPKRWMYPQGEYDNNGTNVETAITRQFGAGNDKINQATWWQKKS", "soluble on expression in E. coli": "soluble"},
      {"sequence": "GPGSMNRLFGRKKDTQKPTLEDASVKIGARCDAVDARVSKIDAELAKLKECIQRTTGATQQRHKQRAIQLLQQKRLYQNQQDVLMQQQFNIDQLQFTTESVKDAKLQVDAMKDATKTLKREFKKMSVADVEKLQDELLNLYEDAQYVQEAMGRSYDVPDSIDEDEMLGELEALAMQSGNEADSSYLSDALAMPSGRLPDLMSNTQQQQETETPDPYKLETQLGL", "soluble on expression in E. coli": "not soluble"},
      {"sequence": "MGRPRVARLDRERIAEAALELVDRDGDFRMPDLARHLNVQVSSIYHHAKGRAAVVELVRHRVVREIDGSAFERLPWDEAFSEWARSYRAAFSRHPTAIRLLATETVRDPGSLSVYHSAAAGLRGAGFPDDHIMAVITAAENFLLGAALDAAAPEVMIEADSTTTDDALTRALAAAPRGPERAEQAFELGLAALLAGFHHLLQECGAVQR", "soluble on expression in E. coli": "soluble"},
      {"sequence": "MFRLLFVSPRIAPNTGNAIRTCAATGCELHLVEPLGFDLSEPKLRRAGLDYHDLASVTVHASLAHAWEALSPARVFAFTAQATTLFTNVGYRAGDVLMFGPEPTGLDEATLADTHITGQVRIPMLAGRRSLNLSNAAAVAVYEAWRQHGFAGAV", "soluble on expression in E. coli": "not soluble"},
      {"sequence": "MAHHHHHHMSPYEYLFKYIIIGDTGVGKSCLLLQFTDKRFRADHDLTIGVEFGARLINLDNKQIKLQIWDTAGQESFRSITRSYYRGAAGALLVYDITRRETFNHLNRWLDEVRQNSNPHMAIILVGNKCDLERREVSAEEGAQFARQNGLIFLETSAKTAKNVEEAFLYTARKIYDNILEDVYDLSNESYGIKYGPNSQYSRVKLDIPSMPESRSGFSCC", "soluble on expression in E. coli": "soluble"},
      {"sequence": "MTKSLPGVADLRLGANHPRMWTRRVQGTVVNVGVKVLPWIPTPAKRILSAGRSVIIDGNTLDPTLQLMLSTSRIFGVDGLAVDDDIVASRAHMRAICEAMPGPQIHVDVTDLSIPGPAGEIPARHYRPSGGGATPLLVFYHGGGWTLGDLDTHDALCRLTCRDADIQVLSIDYRLAPEHPAPAAVEDAYAAFVWAHEHASDEFGALPGRVAVGGDSAGGNLSAVVCQLARDKARYEGGPTPVLQWLLYPRTDFTAQTRSMGLFGNGFLLTKRDIDWFHTQYLRDSDVDPADPRLSPLLAESLSGLAPALIAVAGFDPLRDEGESYAKALRAAGTAVDLRYLGSLTHGFLNLFQLGGGSAAGTNELISALRAHLSRV", "soluble on expression in E. coli": "soluble"},
      {"sequence": "MAHHHHHHMSKEKLAKEKIEKGQHYEAHQLIKSLINRKLQKNQVSSCMSIIFYFSQKMAKAEQYVLLCDLMYQCCTILTQHNIKFSEEYAKKIIEIFNLCPPNSTEEKYKFMNKCILWSTNDDEIFGYLDFHKAIAYAYFEDKKYSLAHNHFIYLEDNEILYKIICLWQKEGYPSESDFFILRTTLCLLVLDKFEQALDLINKFEPNLDRKDVPLPVQIAYLITCSCIYRSAPLYEDVKYKYRLILNYDPDFQKYIGILDDVLFNKRKHDLFSMFQNIFG", "soluble on expression in E. coli": "not soluble"},
      {"sequence": "MDLFPVLKELAQKTPSKILLIVLDGVGGLPLEPGGPTELEAAKTPNLDRLAEESALGLLTPVYPGLAPGSGPGHLALFGYDPFRYVVGRGALSALGLGADFREGDVALRGNFATLDPEGKVVDRRAGRPPTEENQRVVAKLKEAIPRIEDVEVHFYTESEHRFLVVLRGEGLGDAVTDTDPQKTGLPPLKAKALDEASERTARLVNLLSERIREVLKDEPRMNGALFRGASKKPSFPRMQEVYKLTPAAIASYPMYKGLASLVGMEVLPVEGEGDALEGKLKALKENWGRYDFFYFHVKKTDAMGEDGNFHGKVEKVELFDALLPEILALGPDVLAITGDHSTPALLKAHSWHPVPLLLKAPYLRADEARRFTEREAQRGSLGHLRGMELMPLLLAHAGKLLKYGALEHHHHHH", "soluble on expression in E. coli": "not soluble"},
      {"sequence": "MGSDKIHHHHHHMQISNEDYEQLKPLLFSLGYRLLGSVTDAEDLVQETFLRAYQAEEREINNKKAYLCKMMTNRCLDVLKSARRKREQYVGPWLPEPLLITSDDPSEAILQKEGLSMAYLRMMEHLTPHERAVFLLREVFTFSYREIASMMEKKEDNCRKLYSRAKEKLSAVKGESLHYENNRSVVDRFIHSFQTEDQGDLLELLSDHVTLYTDGGGKVRAALRPIYTKDHVAAFLFGIAKKRPNDFYVEVKNVNGQPALISYADSKLYNVICFYIVGGQIQDIYIIMNPEKLPSNG", "soluble on expression in E. coli": "not soluble"},
      {"sequence": "MSKNTGSVAPKERVNIKYVPATSDEQAEVELPHKMLVLGDFGLDDSRALEDRQVMRIDKHTFNSVLNDANVSLDVTVPSRLGTAPDTELAVHLQFRSINDFGPDRIARQVPELNKLLALREALVALKGPLGNVPAFRKQLQHLLNNEQARKQLAQELDLVLEAPEKD", "soluble on expression in E. coli": "not soluble"},
      {"sequence": "SSRIGEIKEETTSHLRSCEYKGRPPKAGAEPASEREVS", "soluble on expression in E. coli": "soluble"},
      {"sequence": "MTLYEYDGSHVRKRVFQNTSWIFVTGDRYDIETLYDQLDSTRLKYEYSTMPDIYGYQDGIKIWVRPSHARMVGEIIFSNIGYGRRYRVYNADIDPVLRFMASNGLSFFEMRSVYDPDPDLNVAMVDCSHGKCIVDGEAMGDGRIYDRLMDSHVIVYEGTEQFYRKLMALGIRARYYPGKSFTSYGQISYRDSYLDIADRIAINSRSFFYAESGLSGIYEVSRISHLPPLYVSIVTPGTAVSSMELAEAVKKGMLVPFKKDDHENPKTKWEIMAKDRGGLIFQPLPGLYTDVYEIDFSSMYPSIIVRYDLTPGRISFLPEALEGLLSRRLIYKKMDGESVVYHSRNVALKWLLLTSFGYTGYKNAKFGKIEVHERITELGRKALAEAIAVAHENGFEMIHGIVDSLWIRGSGSIERVVSEISRRTRIDIVVSGHYHWIAFLPERDGTGSPSRYIGLDTSGKYKIRGLMIRRSDVPDLCKAFQMDALRVLSSCTDTRCILEKRREIMDLENYYLRNIRHFPRSYFMVSRKITRRPDEYHVKNLTRSALDLCRDAEELSPGQMISYYVVDEKRKIVDTDGENGIDYGYYRRCLTRALEEINFLFGKNCNIRRLEDFQSFQ", "soluble on expression in E. coli": "not soluble"},
      {"sequence": "MQGLYIYGEVGRGKTMLMDLFFSCLPQKRKKRAHFNDFMADVHERINIYRQASKDGKTGQKTPILAVVEDLAQEAQVLCFDEFSVTDIADAMVLGRLISALFDKGIFFVATSNVAPDNLYYNGLEHHHHHH", "soluble on expression in E. coli": "not soluble"},
      {"sequence": "MGSDKIHHHHHHMELCTTICVDLAKQVFQLAGEDATGRVIYEDRIKSRQAFHDFLLRLPTTVAVLMECGPGAQAWARLLQAKGNPVRILPAQRVAEHRSGAKNDRNDCYAILRAGRDTSIASIPIKSTTALAIQALHRIRRGNIKRHTALGNQIRGLLLEHGVSMPQGDAAINKHVPRALEDASLPLPDLLRELLDELLMDWLSLGERITALSRRLEATAQEDKVAQRLITIRGVGPIIATAIVAKQTDPSRFASGRMYSAFFGIVPDQHSSGNKIRLGKMSKRGDGYIRSLMIQGAHSVLSQLRPDSDQPDDRRLLRWLSRLGRKEAAIRLANRNLRIIWALLQSDQVYQRKPNEKPEAAMSL", "soluble on expression in E. coli": "not soluble"},
      {"sequence": "MGSDKIHHHHHHMPVFYPAVQGSLPMGGQESLPLRRLKSFQPLGRLTDDQLVLLASRAERRTHGPGQRVMERGVRDGLDYFLISGAVELQSVDGRKSTIEAETDKALNPVARLQPRMYDVTAVKPCEFLVIEQEVLNQMLRAAPISQVEMDSSDHDEDQSEEHHLLMEFYSELRSNQVQLPSVPDVAWKVRRVVDREDSSATEVASAVSADPAMAAKLVRSCNSPLYRGFSDVRNVREAVVRLGMRTTRQLVTVFAMREVFKTRRAPLQKEMEQLWRHSREVAALCWVLADHATRIDPEEALLAGLLHDIGVVPVLVQAEHHVNLFADDRNLHHAIDELRADVGCAVLENWAFPKAFVEAVRHAEDWHHECRETAPQLVDVVIVAQLHSMIGSSQNEGLPAFDQVPAWRRLGELELNASRSLQLLSEARERVDEVQKLLSIR", "soluble on expression in E. coli": "not soluble"},
      {"sequence": "MRLEGLTIGVGFTGSFCTYDKIFIELENLVKEGANVHTIFSDVSQNIDCRFGNSEEFMKKAYELTGNKPIVTIEEAEPFGPKGIADIIIIAPCTGNTAAKLANGITDSPVLMAAKGHLRNDKPLVISISTNDALSFNFKNIGILLNSKNIYFVPFGQDNCKAKPNSMIAHTELIIPTIELALENKQLQPVIKSPHQLEHHHHHH", "soluble on expression in E. coli": "soluble"},
      {"sequence": "KDADVDITLIDRTNHHLFQPLLYQVATGILSSGEIAPQTRQVLAQQNNVHVLKAEVTDIDTESKTVVADLDDYSKTIEYDSLIVAAGAGQSYFGNDHFAEFAPGMKTIDDALELRARIIGAFERAEMCEDPKERERLLTFVIVGAGPTGVELAGQLAEMAHRTLSGEYTQFTPSNAKIILLDGAPQVLPPFGKR", "soluble on expression in E. coli": "not soluble"}
    ]}
  ]
}
